Test results taken from article PMC5025888 (Scientific Reports, 2016).

Target: NS1 of rgPR8-NS1-WT virus (Influenza A virus A/Puerto …, UniProt P03496)
Assay: Western blot
Details: one partner purified

NS1 of rgPR8-NS1-WT virus, sequence (P03496 whole entry): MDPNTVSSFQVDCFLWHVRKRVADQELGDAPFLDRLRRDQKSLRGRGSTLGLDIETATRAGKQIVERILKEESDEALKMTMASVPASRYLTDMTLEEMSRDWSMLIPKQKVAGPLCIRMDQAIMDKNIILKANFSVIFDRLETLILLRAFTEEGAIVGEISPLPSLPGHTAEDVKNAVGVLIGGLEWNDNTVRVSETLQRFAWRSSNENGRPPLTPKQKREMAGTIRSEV

B1: monoclonal antibody 2H6 (antibody, V domains shown)
VH: DVKLVESGGGLVNLGGSLKLSCAASGFTFSRYYMSWVRQTPEKRLELVAAINHNSGRTYYSDTVKGRFTISRDNAKNTLYLQMSSLKSEDTALYYCTRHPLIYHGNYLDYWGQGTTLTVSS
VL: DIVLTQSPASLAVSLGQRATISCKASQSVDYDGDSYVTWYQQKPGQPPKLLIYVASNLESGIPARFSGSGSGTDFTLNIHPVEEEDAATYYCQQSNEDPWTFGGGTKLEIK
- binding result: binds
